Columns and labels:
[1] = Stability analyses (RNase A, 10% FBS DMEM, 8 M urea) by native PAGE; type: in vitro ADME; conditions: 37° C.
Text: FIG. 1A) The scheme of the pRNA-HER2apt-siMED1 (p-HER2-siMED1) (SEQ ID NO: 15) structure. FIG. 1B) The p1 and p2 strands of pRNA-HER2apt-siMED1_were transcribed using an in vitro RNA transcription system and separated in 8% denatured PAGE gel. FIG. 1C) pRNA-HER2apt-siMED1 nanoparticles were generated by annealing equal molar of strands p1 and p2, and subjected to 8% native PAGE gel electrophoresis. FIG. 1D) DLS assay of hydrodynamic size of pRNA-HER2apt-siMED1 nanoparticle. FIG. 1E) The Tm value of pRNA-HER2apt-siMED1 nanoparticle determined by TGGE assay. FIG. 1F) The atomic force microscopy (AFM) images of pRNA-HER2apt-siMED1 nanoparticles. FIG. 1G) The stability of control unmodified and 2′-F modified pRNA nanoparticles was examined by 8% native PAGE gel electrophoresis after RNase A, 10% FBS-supplemented DMEM medium and 8M urea treatments for the indicated time at 37° C.
Cell culture. Human breast cancer luciferase-overexpressing BT474 and MDA-MB-231 cells were maintained in DMEM medium (Hyclone, Thermo Scientific) supplemented with 10% fetal bovine serum (FBS, Sigma) and 1% penicillin/streptomycin (Corning) at 37° C. in a humidified atmosphere with 5% CO2.^53 • Generation of pRNA nanoparticles. The two strands of pRNA were synthesized with the DNA templates, which were amplified with overlapping primers (Sigma) by PCR methods, using a T7 promoter-controlled in vitro RNA transcription system as previously described^33 (Table 1). All the CTP and UTP used for synthesis of the pRNA nanoparticles were 2′-fluoro modified, except the control unmodified pRNA nanoparticles used in the stability assays. […] The hydrodynamic diameter and Tm value of pRNA nanoparticles were determined using dynamic light scattering and TGGE assay, respectively, as previously described.^54 The AFM imaging of the pRNA nanoparticles was performed at the University of Nebraska Medical Center imaging facility as previously reported.^55 Briefly, the pRNA nanoparticles (5 μL) were deposited on APS modified mica ^56 for a total of 2 min of incubation time. […]

MED1 = MED1 protein level by western blots in MCF-7/HER2 cells; type: cell-based, human; conditions: MCF-7/HER2, 10 μg/mL, 48 h
Procedure: FIGS. 10A-10D. Evidence that pRNA-HER2apt-siMED1 nanoparticles silenced MED1 expression and sensitized two other HER2+ breast cancer cells to tamoxifen treatment. FIG. 10A) Two HER2-overexpressing breast cancer cell lines MCF7/TAM and FIG. 10B) MCF7/HER2, were treated with 10 μg/mL pRNA-HER2apt-siMED1 nanoparticles or scramble control for 48 h, and then MED1 protein level was determined using western blots. FIG. 10C) MCF7/TAM and FIG. 10D) MCF7/HER2 cells were treated with 10 μg/mL pRNA nanoparticles and/or 1 μM tamoxifen (TAM) as indicated for 48 h, and then cell growth was determined using an MTT assay.
Next, the ability of pRNA-HER2apt-siMED1 nanoparticles to silence the expression of MED1 in BT474 and MDA-MB-231 human breast cancer cells was examined. Using real-time PCR analyses, a significant depletion of nearly 70% of MED1 mRNA in BT474 cells after pRNA-HER2apt-siMED1 but not pRNA-HER2apt^mut-siMED1 treatment was found (FIG. 3A).

B1: pRNA-HER2apt-siMED1: 3-WJ pRNA nanoparticle bearing a HER2-targeting RNA aptamer and two different MED1 siRNAs; strands p1 SEQ ID NO: 3, p2 SEQ ID NO: 4 (nucleic acid)
chain 1: GGACAGUGAAAGUGAGUCAAAGGAUCAAUCAUGGCCAAAGAUGUUACUUUGAGAGCCUU
chain 2: GGCUCUCAAAGUAACAUCUAAGGCCAUGUGUAUGUGGGGGGAGGACGAUGCGGUCUGCUGUGCUUGAUAUGCCCCAGACGACUCGCCCCCCACAUACUUUGUUGAUCCAAUGACUCACUUUCACUGUCCUU
modifications: 2'-F modification; third strand may lack entry; pRNA-HER2apt-siMED1, p1; pRNA-HER2apt-siMED1, p2
resistance to RNase A treatment ([1]; 10 μg/mL RNase A): resistant | structure in 8M urea ([1]; 8M urea): maintained their structure | stability in 10% FBS-supplemented DMEM medium [1]: highly stable | MED1 silencing (MED1): confirmed
